In patent US20260167699A1 (Chugai, published 2026):

Target: T1, FcγRIIIa (human, UniProt P08637 17-208)
T1 construct: extracellular domain; also called 3a; FcγRIIIa extracellular domain
Assay: SPR (Biacore);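 further: antibody variants captured on an SPR sensor chip, with FcγRIIIa passed over as analyte in HBS-EP+ buffer at 25 °C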

T1 sequence (P08637 other isoform, or with tags, fused parts or gaps): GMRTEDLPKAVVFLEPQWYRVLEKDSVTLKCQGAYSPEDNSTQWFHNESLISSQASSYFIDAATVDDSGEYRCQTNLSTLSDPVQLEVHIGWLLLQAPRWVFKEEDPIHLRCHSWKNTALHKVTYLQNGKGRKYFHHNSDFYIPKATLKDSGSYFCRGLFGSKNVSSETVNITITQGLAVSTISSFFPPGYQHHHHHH

| Binder | He/Con 3a |
| --- | --- |
| GpH7-A5/GpH7-B3 variant L328_19Q/GpL16-k0 (antibody, human IgG1, kappa, copies: 1 + 1 + 2) heavy 1: not shown heavy 2: not shown light: DIVMTQSPLSLPVTPGEPASISCQASESLVHSNRNTYLHWYLQKPGQSPQLLIYKVSNRFSGVPDRFSGSGSGTDFTLKISRVEAEDVGVYYCSQNTHVPPTFGQGTKVEIERTVAAPSVFIFPPSDEQLKSGTASVVCLLNNFYPREAKVQWKVDNALQSGNSQESVTEQDSKDSTYSLSSTLTLSKADYEKHKVYACEVTHQGLSSPVTKSFNRGEC | 83.4 % of GpH7-A5/GpH7-B3/GpL16-k0 |
| GpH7-A5/GpH7-B3 variant P271_13S/GpL16-k0 (antibody, human IgG1, kappa, copies: 1 + 1 + 2) heavy 1: not shown heavy 2: not shown light: DIVMTQSPLSLPVTPGEPASISCQASESLVHSNRNTYLHWYLQKPGQSPQLLIYKVSNRFSGVPDRFSGSGSGTDFTLKISRVEAEDVGVYYCSQNTHVPPTFGQGTKVEIERTVAAPSVFIFPPSDEQLKSGTASVVCLLNNFYPREAKVQWKVDNALQSGNSQESVTEQDSKDSTYSLSSTLTLSKADYEKHKVYACEVTHQGLSSPVTKSFNRGEC | 79.8 % of GpH7-A5/GpH7-B3/GpL16-k0 |
| GpH7-A5/GpH7-B3 variant P271_10E/GpL16-k0 (antibody, human IgG1, kappa, copies: 1 + 1 + 2) heavy 1: not shown heavy 2: not shown light: DIVMTQSPLSLPVTPGEPASISCQASESLVHSNRNTYLHWYLQKPGQSPQLLIYKVSNRFSGVPDRFSGSGSGTDFTLKISRVEAEDVGVYYCSQNTHVPPTFGQGTKVEIERTVAAPSVFIFPPSDEQLKSGTASVVCLLNNFYPREAKVQWKVDNALQSGNSQESVTEQDSKDSTYSLSSTLTLSKADYEKHKVYACEVTHQGLSSPVTKSFNRGEC | 98.2 % of GpH7-A5/GpH7-B3/GpL16-k0 |
| GpH7-A5/GpH7-B3 variant P238_09D/GpL16-k0 (antibody, human IgG1, kappa, copies: 1 + 1 + 2) heavy 1: not shown heavy 2: not shown light: DIVMTQSPLSLPVTPGEPASISCQASESLVHSNRNTYLHWYLQKPGQSPQLLIYKVSNRFSGVPDRFSGSGSGTDFTLKISRVEAEDVGVYYCSQNTHVPPTFGQGTKVEIERTVAAPSVFIFPPSDEQLKSGTASVVCLLNNFYPREAKVQWKVDNALQSGNSQESVTEQDSKDSTYSLSSTLTLSKADYEKHKVYACEVTHQGLSSPVTKSFNRGEC | 100 % of GpH7-A5/GpH7-B3/GpL16-k0 |
| GpH7-A5/GpH7-B3 variant P238_10E/GpL16-k0 (antibody, human IgG1, kappa, copies: 1 + 1 + 2) heavy 1: not shown heavy 2: not shown light: DIVMTQSPLSLPVTPGEPASISCQASESLVHSNRNTYLHWYLQKPGQSPQLLIYKVSNRFSGVPDRFSGSGSGTDFTLKISRVEAEDVGVYYCSQNTHVPPTFGQGTKVEIERTVAAPSVFIFPPSDEQLKSGTASVVCLLNNFYPREAKVQWKVDNALQSGNSQESVTEQDSKDSTYSLSSTLTLSKADYEKHKVYACEVTHQGLSSPVTKSFNRGEC | 98.9 % of GpH7-A5/GpH7-B3/GpL16-k0 |
| GpH7-A5/GpH7-B3 variant P238_19Q/GpL16-k0 (antibody, human IgG1, kappa, copies: 1 + 1 + 2) heavy 1: not shown heavy 2: not shown light: DIVMTQSPLSLPVTPGEPASISCQASESLVHSNRNTYLHWYLQKPGQSPQLLIYKVSNRFSGVPDRFSGSGSGTDFTLKISRVEAEDVGVYYCSQNTHVPPTFGQGTKVEIERTVAAPSVFIFPPSDEQLKSGTASVVCLLNNFYPREAKVQWKVDNALQSGNSQESVTEQDSKDSTYSLSSTLTLSKADYEKHKVYACEVTHQGLSSPVTKSFNRGEC | 52.7 % of GpH7-A5/GpH7-B3/GpL16-k0 |
| GpH7-A5/GpH7-B3 variant P271_03V/GpL16-k0 (antibody, human IgG1, kappa, copies: 1 + 1 + 2) heavy 1: not shown heavy 2: not shown light: DIVMTQSPLSLPVTPGEPASISCQASESLVHSNRNTYLHWYLQKPGQSPQLLIYKVSNRFSGVPDRFSGSGSGTDFTLKISRVEAEDVGVYYCSQNTHVPPTFGQGTKVEIERTVAAPSVFIFPPSDEQLKSGTASVVCLLNNFYPREAKVQWKVDNALQSGNSQESVTEQDSKDSTYSLSSTLTLSKADYEKHKVYACEVTHQGLSSPVTKSFNRGEC | 73.5 % of GpH7-A5/GpH7-B3/GpL16-k0 |
| GpH7-A5/GpH7-B3 variant N325_09D/GpL16-k0 (antibody, human IgG1, kappa, copies: 1 + 1 + 2) heavy 1: not shown heavy 2: not shown light: DIVMTQSPLSLPVTPGEPASISCQASESLVHSNRNTYLHWYLQKPGQSPQLLIYKVSNRFSGVPDRFSGSGSGTDFTLKISRVEAEDVGVYYCSQNTHVPPTFGQGTKVEIERTVAAPSVFIFPPSDEQLKSGTASVVCLLNNFYPREAKVQWKVDNALQSGNSQESVTEQDSKDSTYSLSSTLTLSKADYEKHKVYACEVTHQGLSSPVTKSFNRGEC | 53 % of GpH7-A5/GpH7-B3/GpL16-k0 |
| GpH7-A5/GpH7-B3 variant N325_16H/GpL16-k0 (antibody, human IgG1, kappa, copies: 1 + 1 + 2) heavy 1: not shown heavy 2: not shown light: DIVMTQSPLSLPVTPGEPASISCQASESLVHSNRNTYLHWYLQKPGQSPQLLIYKVSNRFSGVPDRFSGSGSGTDFTLKISRVEAEDVGVYYCSQNTHVPPTFGQGTKVEIERTVAAPSVFIFPPSDEQLKSGTASVVCLLNNFYPREAKVQWKVDNALQSGNSQESVTEQDSKDSTYSLSSTLTLSKADYEKHKVYACEVTHQGLSSPVTKSFNRGEC | 68 % of GpH7-A5/GpH7-B3/GpL16-k0 |
| GpH7-A5/GpH7-B3 variant P271_01G/GpL16-k0 (antibody, human IgG1, kappa, copies: 1 + 1 + 2) heavy 1: not shown heavy 2: not shown light: DIVMTQSPLSLPVTPGEPASISCQASESLVHSNRNTYLHWYLQKPGQSPQLLIYKVSNRFSGVPDRFSGSGSGTDFTLKISRVEAEDVGVYYCSQNTHVPPTFGQGTKVEIERTVAAPSVFIFPPSDEQLKSGTASVVCLLNNFYPREAKVQWKVDNALQSGNSQESVTEQDSKDSTYSLSSTLTLSKADYEKHKVYACEVTHQGLSSPVTKSFNRGEC | 119 % of GpH7-A5/GpH7-B3/GpL16-k0 |
| GpH7-A5/GpH7-B3 variant P271_09D/GpL16-k0 (antibody, human IgG1, kappa, copies: 1 + 1 + 2) heavy 1: not shown heavy 2: not shown light: DIVMTQSPLSLPVTPGEPASISCQASESLVHSNRNTYLHWYLQKPGQSPQLLIYKVSNRFSGVPDRFSGSGSGTDFTLKISRVEAEDVGVYYCSQNTHVPPTFGQGTKVEIERTVAAPSVFIFPPSDEQLKSGTASVVCLLNNFYPREAKVQWKVDNALQSGNSQESVTEQDSKDSTYSLSSTLTLSKADYEKHKVYACEVTHQGLSSPVTKSFNRGEC | 97.7 % of GpH7-A5/GpH7-B3/GpL16-k0 |
